Experimental findings from publication PMC11655445 are described below.

Settings in all cases: glycan lost; control: WT PTTG1IP-GFP
Data set [1] is described as follows: anti-GFP Western blot of isolated EVs. In general terms: Immunoblotting shows a protein as a band on a membrane.
A short description of data set [2]: single-vesicle analysis, GFP+ EVs in conditioned media.
Data set [3] in a line: median fluorescence intensity of GFP+ EVs.
Data set [4] is described as follows: anti-GFP Western blot of cell lysates.

B1: PTTG1IP (pituitary tumor-transforming gene 1 protein-interacting protein): 2NQ (protein)
parent chain: MAPGVARGPTPYWRLRLGGAALLLLLIPVAAAQEPPGAACSQNTNKTCEECLKNVSCLWCNTNKACLDYPVTSVLPPASLCKLSSARWGVCWVNFEALIITMSVVGGTLLLGIAICCCCCCRRKRSRKPDRSEEKAMREREERRIRQEERRAEMKTRHDEIRKKYGLFKEENPYARFENN
For B1, the localisation_or_trafficking result in data set [1] was “decreases”. In data set [2], the “localisation_or_trafficking, other: % GFP+ vesicles” value is listed as “decreases, 27.2 vs 84”. This protein also gave a localisation or trafficking, percent of wt in data set [3] of 48%. In data set [4], the expression_or_secretion entry is “no change”.

B2: PTTG1IP (pituitary tumor-transforming gene 1 protein-interacting protein): N54Q (protein)
parent chain: B1 parent chain
With B2, the “localisation_or_trafficking, other: % GFP+ vesicles” value in data set [2] was “decreases, 45.7 vs 84”. In addition, in data set [4], the expression_or_secretion entry is recorded as “no change”.

B3: PTTG1IP (pituitary tumor-transforming gene 1 protein-interacting protein): N45Q (protein)
parent chain: B1 parent chain
For B3, the “localisation_or_trafficking, other: % GFP+ vesicles” value in data set [2] was “decreases, 43.6 vs 84”. Further, in data set [4], the expression_or_secretion result is recorded as “no change”.
